From publication PMC12327846

Molecular target: T1, DtxR (Corynebacterium glutamicum) (UniProt Q8NP95)
T1 sequence: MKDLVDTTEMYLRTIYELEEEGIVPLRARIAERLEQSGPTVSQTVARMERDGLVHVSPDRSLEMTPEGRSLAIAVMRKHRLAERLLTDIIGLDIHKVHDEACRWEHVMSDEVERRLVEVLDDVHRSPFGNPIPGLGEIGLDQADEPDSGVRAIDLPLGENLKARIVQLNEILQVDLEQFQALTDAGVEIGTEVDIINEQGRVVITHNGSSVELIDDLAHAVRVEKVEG
Test: EMSA
Details: EMSA: 31 nM DNA, DtxR at 0/50/200-fold (A) or 0/300/400-fold (B) excess; 50 mM Tris-HCl pH 7.5, 5 mM MgCl2 (rest of buffer not in material); 30 min, room …

Sequence | binding
TTTGACGTGCTTTTTTAGCACGCCATTAAGCTAAAAATAAGGTTAGGGTGCGTTATGTTTTCAGGTATCAAAAGGTGCTAATGCCTTTATTGTGTTTCGCATTGTCATTTACCACATGAAG (double strand) [cepA promoter 121 bp] | binds
AACCTGGGGGTTATATAAAAAACTTCACAAAAAGGTTGCATCCGCATCAACCGAAAGATAGTGTGTGTGAGGCAAGCCTAAGTAAACTTCTTCAAGGTTCGGGCTGGTTCCTTGAAGACGG (double strand) [xerC promoter 121 bp] | binds
GGACCTAAGCGTGTAAGATGGAAACGTCTGTATCGGATAAGTAGCGAGGAGTGTTCGTTAAAAGTGGCAAACACTGAACACAATTATGACGCTTCATCGATCACCATCCTTGAAGGTCTTG (double strand) [gyrB promoter 121 bp] | no binding
GAGTAGTAGCAGTGGGTATTTGCAAGCCTTTGACAAGTTACTAAACCGTGCTACCGAAACCCCTCGTGTTTAAATCTAGAAGTTTAAAGGGTGAAAACAGTCCATTACTTAAGCACCAATC (double strand) [NCgl0177 promoter 121 bp] | no binding
GTGGCGCTTTGCCTGTGTTGCTTAGGCGGCGTTGAAAATGAACTACGAATGAAAAGTTCGGGAATTGTCTAATCCGTACTAAGCTGTCTACACAATGTCTACTTCAGTTACTTCACCAGC (double strand) [metH promoter 121 bp] | binds
TAGTCGTATCAAAAAGTGCTCTGATCTTAACTTTGCCCTACCTAAATACATGACCCCACCACGACGGCCAGTACTAACGACAGAATCCACTAGCGAACCCATTTATTAACAAACATTGCAA (double strand) [NCgl2776 promoter 121 bp (primers named NCgl2766)] | binds
